Assay results reported in patent US20240043551A1 (ADLAI NORTYE BIOPHARMA, published 2024).

T1: His tagged human TNFR2 ECD (Acro Biosystem, TN2-H5227) (human, UniProt P20333 23-257)
T1 construct: extracellular domain; Bought protein; also called TNFR2-His; hTNFR2-His; not shown: His tag
T1 sequence (looked up): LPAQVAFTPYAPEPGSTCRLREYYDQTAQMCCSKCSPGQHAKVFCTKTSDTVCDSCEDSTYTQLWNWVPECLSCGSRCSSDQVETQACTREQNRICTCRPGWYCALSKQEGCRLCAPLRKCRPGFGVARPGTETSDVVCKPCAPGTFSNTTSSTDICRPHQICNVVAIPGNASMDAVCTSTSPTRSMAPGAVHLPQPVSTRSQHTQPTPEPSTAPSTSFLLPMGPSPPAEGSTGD

T2: mouse TNFR2 (R&D systems, 426-R2-050/CF) (mouse, UniProt P25119 23-258)
T2 construct: Bought protein
T2 sequence (looked up): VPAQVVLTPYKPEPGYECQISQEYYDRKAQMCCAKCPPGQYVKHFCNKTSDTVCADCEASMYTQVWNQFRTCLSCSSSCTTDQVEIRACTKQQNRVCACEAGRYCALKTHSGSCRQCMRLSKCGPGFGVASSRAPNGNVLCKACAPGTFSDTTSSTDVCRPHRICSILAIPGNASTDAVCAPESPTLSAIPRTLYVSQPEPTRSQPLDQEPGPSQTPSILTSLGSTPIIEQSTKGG

T3: Human TNFR1 (Acro Biosystem, TN1-H5222) (human, UniProt P19438 30-211)
T3 construct: Bought protein; also called TNF receptor type 1; CD120a
T3 sequence (looked up): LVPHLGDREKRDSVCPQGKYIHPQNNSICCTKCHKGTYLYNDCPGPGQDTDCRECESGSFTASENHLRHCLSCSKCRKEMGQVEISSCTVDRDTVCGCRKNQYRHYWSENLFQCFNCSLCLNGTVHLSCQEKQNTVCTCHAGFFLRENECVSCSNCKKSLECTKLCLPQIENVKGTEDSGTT

T4: rat TNFR2 (R&D systems, 8348-R2-050) (rat, UniProt Q80WY6 23-258)
T4 construct: Bought protein
T4 sequence (looked up): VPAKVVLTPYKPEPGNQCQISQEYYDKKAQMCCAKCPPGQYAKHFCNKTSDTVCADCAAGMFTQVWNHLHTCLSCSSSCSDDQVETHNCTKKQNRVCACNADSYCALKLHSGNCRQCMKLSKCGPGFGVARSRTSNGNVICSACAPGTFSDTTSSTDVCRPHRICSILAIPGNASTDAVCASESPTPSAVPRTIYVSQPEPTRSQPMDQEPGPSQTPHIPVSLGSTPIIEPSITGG

T5: Full length human TNFR2 on Jurkat E6-1 cells (Clone NO.3) (human, UniProt P20333 23-461)
T5 construct: whole, on cells; also called human TNFR2+ Jurkat cells; hTNFR2 Jurkat
T5 sequence (looked up): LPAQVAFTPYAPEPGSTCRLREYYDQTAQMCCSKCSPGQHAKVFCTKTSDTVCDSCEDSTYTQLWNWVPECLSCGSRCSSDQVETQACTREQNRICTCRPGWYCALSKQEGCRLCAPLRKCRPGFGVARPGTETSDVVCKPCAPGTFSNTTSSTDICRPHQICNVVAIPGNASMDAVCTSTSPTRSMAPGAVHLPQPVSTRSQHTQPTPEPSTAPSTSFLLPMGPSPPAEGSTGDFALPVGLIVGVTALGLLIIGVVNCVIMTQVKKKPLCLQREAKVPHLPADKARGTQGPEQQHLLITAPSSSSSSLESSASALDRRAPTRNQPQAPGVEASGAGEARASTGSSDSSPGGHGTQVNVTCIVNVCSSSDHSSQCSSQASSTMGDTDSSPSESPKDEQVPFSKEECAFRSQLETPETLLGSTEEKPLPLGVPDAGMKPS

B1: TN36-2 (antibody, human IgG1, V domains shown)
VH: EVQLVESGGGLIQPGGSLRLSCAASGFSLSSSAVSWVRQAPGKGLEWIGAIGSGGTSYYSNWAKSRFTISRDNSKNTLYLQMNSLRAEDTAVYYCARDPNSSDYPYGAYGMGLWGRGTLVTVSS
VL: DIQMTQSPSSLSASVGDRVTITCQVSQSISSYLSWYQQKPGKAPKLLIYYASTLASGVPSRFSGSGSGTDFTLTISSLQPEDFATYYCQQGYITSNVGNAFGGGTKVEIK
notes: Humanized; also called AL2/AL8
B2: TN36-9 (antibody, human IgG1, V domains shown)
VH: EVQLVESGGGLIQPGGSLRLSCAASGFSLSSSAVSWVRQAPGKGLEWIGAIGSGGTSYYSNWAKSRFTISRDNSKNTLYLQMNSLRAEDTAVYFCARDPNSSDYPYGAYGMGLWGRGTLVTVSS
VL: DIQLTQSPSFLSASVGDRVTITCQVSQSISSYLSWYQQKPGKAPKLLIYYASTLASGVPSRFSGSGSGTEFTLTISSLQPEDFATYYCQQGYITSNVGNAFGGGTKVEIK
notes: Humanized; also called AL3/AL11
B3: TN1-36 scFv on phage (scFv, V domains shown)
VH: QQSVKESEGGLFKPTDTLTLTCTVSGFSLSSSAVSWVRQAPGNGLEWIGAIGSGGTSYYSNWAKSRSTITRDTNLNTVTLKMTSLTAADTATYFCARDPNSSDYPYGAYGMGLWGPGTLVTVSS
VL: ELDLTQTPASVEVAAGGTVTINCQVSQSISSYLSWYQQKPGQPPKLLIYYASTLASGVPSRFSGSGSGTEFTLTISGVQCDDAATYYCQQGYITSNVGNAFGGGTEVVVK
notes: also called TN1-36_VH/TN1-36_VL

Legend:
[1] = target: T1, His tagged human TNFR2 ECD (Acro …); assay: ELISA, TNFR2-His coated, antibody 0.006 and 0.06 µg/well
[2] = target: T2, mouse TNFR2 (R&D systems, 426-R2-050/CF); assay: ELISA, receptor coated at 1 µg/mL
Method: (§1) Human TNFR2 (Acro Biosystem, TN2-H5227), Human TNFR1 (Acro Biosystem, TN1-H5222), Cynomolgus TNFR2 (Sino Biological, 90102-CO8H) or mouse TNFR2 (R&D systems, 426-R2-050/CF) was coated on high binding polystyrene flat bottom micro-titer plates (Thermo Scientific, 3455) in PBS (PH=7.4, Gibco,10010-031) at 1 μg/mL and 100 μL per well. Plates were incubated at 4° C. overnight.
(§2) Plates were warmed up to room temperature the next day and washed with 200 μL PBS containing 0.1% Tween 20 (Life technologies, 003005) per well for 3 times. Plates were blocked with 200 μL PBS buffer containing 1% BSA (Fisher Scientific, BP1600-100) per well for 1 hour at 37° C. Antibodies was titrated from 5 μg/mL in a 5-fold dilution series, distributed 100 μL per well and incubated at 37° C. for 1 hour. Human IgG1 isotype control (BioxCell, BE0297) was used as negative control. Plates were washed with 200 μL PBS containing 0.1% Tween 20 (Life technologies, 003005) per well for 3 times. Goat anti-Human IgG Fc Secondary Antibody-HRP conjugate (Invitrogen, A18817) were distributed at 0.5μg/mL and 100 μL per well to detect bound antibodies. After 1-hour incubation of secondary antibody at 37° C., plates were washed with 200 μL PBS containing 0.1% Tween 20 (Life technologies, 003005) per well for 3 times. Plates were developed using TMB Substrate Solution (eBioscience, 00-4201-56) and stopped with ELISA stop solution (Invitrogen, SSO4). The level of bound antibodies was determined by reading absorbance at 450 nm. Mouse anti-human TNFR1 antibody (ThermoFisher Scientific, MA1-81005) and goat anti mouse IgG secondary antibody-HRP conjugate (Invitrogen, 62-5520) were used as positive control for human TNFR1 detection. Armenian Hamster anti-mouse TNFR2 antibody (InVivoMab, BE0247) and HRP-Goat anti-Armenian Hamster IgG (H+L) Secondary Antibody (Invitrogen, PA1-32045) were used as positive control for mouse TNFR2 detection.

[3] = target: T3, Human TNFR1 (Acro Biosystem, TN1-H5222); assay: ELISA, receptor coated at 1 µg/mL
Method: as §1, §2

[4] = target: T4, rat TNFR2 (R&D systems, 8348-R2-050); assay: ELISA, receptor coated at 1 µg/ml
Method: Plates were incubated at 4° C. overnight. Antibodies was titrated from 100 μg/ml in a 5-fold dilution series, and distributed 100 μL, per well and incubated at 37° C. for 1 hour. Human IgG1 isotype control (BioxCell, BE0297) was used as negative control. TNFR2 Polyclonal Antibody (Invitrogen, PAS-80159) and HRP conjugated Goat anti-Rabbit IgG Fc Secondary Antibody (Invitrogen, A16116) were used as positive control for rat TNFR2 detection.

[5] = target: T5, Full length human TNFR2 on Jurkat E6-1 …; assay: FACS on human TNFR2+ Jurkat Clone No.3, biotinylated antibody with streptavidin-PE
Method: FACS analysis was used to evaluate the binding of purified anti-TNFR2 antibody candidates produced from example 6 to cell surface TNFR2 target. Anti-human TNFR2 antibodies and negative control IgG were biotinylated using a EZ-Link™ Micro Sulfo-NHS-Biotinylation Kit (Thermo Fisher Scientific, 21925) according to manufacturer's instructions. Biotinylated antibodies (100 μg/mL) were then incubated with Halt™ Protease Inhibitor Cocktail (100X, Thermo Scientific, 1862209) and 80 μg/mL Streptavidin-R-Phycoerythrin (PE) conjugate (Invitrogen, S21388). Antibodies were stored at 4° C. until use. 5×10⁵ Clone No.3 of human TNFR2⁺ Jurkat cells were distributed each well and blocked with human TruStain FcX™ (Biolegend, 422302) for 10 minutes at room temperature before stained with a serially diluted PE conjugated anti-human TNFR2 antibodies or hIgG1 starting from 50 μg/mL in a 5-fold dilution fashion for 30 minutes at 4° C. PE-anti hTNFR2 (Clone MR2-1, Thermo fisher #TNFR7504) was used as positive control. The geometric mean fluorescent intensity was measured on Sony SA3800 cell analyzer. Data were analyzed using Flowjo Software (Tree star Inc).

[6] = target: T1, His tagged human TNFR2 ECD (Acro …); assay: ELISA, receptor coated at 1 µg/mL, antibody titrated from 5 µg/mL
Method: as §1, §2

[7] = target: T1, His tagged human TNFR2 ECD (Acro …); assay: monoclonal phage ELISA, hTNFR2-His coated, anti-M13-HRP
Method: A 96-well ELISA plate was coated with hTNFR2-His and blocked with PBS buffer containing 2% BSA at […], of pre-blocked phage solution was added to the plate and incubated at 37° C. for 30 min. After the plate was washed twice with PBS buffer containing 0.05% Tween 20, phage binding was detected by HRP-conjugated anti-M13 antibody (GE Healthcare). Top binders were picked and the corresponding phagemids in TG1 cell were isolated and subjected to DNA sequencing to obtain VH/VL sequence. The sequences of TN1-36_VH and TN1-36_VL are set forth as SEQ ID NO: 1 and SEQ ID NO: 2, respectively. Antibody numbering and CDR annotation are performed according to IMGT scheme respectively.

| Binder | binding result [1] | binding result [2] | binding result [3] | binding result [4] | binding result [5] | binding result [6] | binding result [7] |
| --- | --- | --- | --- | --- | --- | --- | --- |
| B1 | binds | no binding (tested: titrated from 5 µg/mL) | no binding (tested: titrated from 5 µg/mL) | no binding (tested: titrated from 100 µg/ml) | binds |  |  |
| B2 |  | no binding (tested: titrated from 5 µg/mL) | no binding (tested: titrated from 5 µg/mL) | no binding (tested: titrated from 100 µg/ml) | binds | binds |  |
| B3 |  |  |  |  |  |  | binds |
